# Laboratory results as given in the RNAGym collection of RNA variant scans (doi:10.1073/pnas.2313332121).
# B1: TPR t1 (parent)
# chain: GACCAAUCUGCCCUCAGAGCUCGAGAACAUCUUCGGAUGCAGAGGAGGCAGGCUUCGGUGGCGCGAUAGCGCCAACGUCCUCAACCUCCAAUGCAUCCCACCACAUGAUGAUGCCUGAAGAGCCUUGGUUUUUUG
# Variants of: B1
# Experiment: polymerase ribozyme fitness, log enrichment relative to wild type (log ratio); higher = more active; in vitro selection for triplet polymerase activity
# Method in brief: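 A single round of triplicate in vitro selection, including frozen incubation at −7 °C, was applied to PCR-built, transcribed mutant libraries of each subunit of a heterodimeric triplet polymerase ribozyme. Illumina sequencing of input and output libraries retained genotypes with ≥10 input reads and ≥1 read per output. Fitness is the base-2 logarithm of genotype enrichment divided by wild-type enrichment, from inverse-variance-weighted replicate averages.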
row,Variant,polymerase ribozyme fitness (log ratio)
1,C56A C72G G77C C98U G128A,-3.6
2,A5U C64U G117A,-2.55
3,A18G U78C G117U C123A C124G,-1.41
4,C13G A18C U38G C88A A121U,-3.5
5,A16C G69U,-1.81
6,C15G U96C G117C U130G,0.208
7,G52U U112G,-0.37
8,C49U G63A U92G A121G,-3.84
9,G10A C11U C89A,-2.04
10,G69U C101A,-0.434
11,G57U C70U C89U,-1.44
12,C11U C49G A74U C123G,0.499
13,C11G G35A G69C C98U,-1.46
14,C72A A95C,-0.926
15,U9A G47A U96G,-0.976
16,G60U A108C C124A,-5.47
17,A41G C49G U55A A111C,-1.63
18,G61A C82U,0.141
19,C85G U112A U126A,-1.28
20,C11U G117C,-2.78
21,C104U C115U,-0.334

row,Variant,polymerase ribozyme fitness (log ratio)
1,C82U G113A,-1.1
2,G35U G117A,-5.15
3,U9G G52U C82U,-1.33
4,G60A G110A,-1.52
5,C20U A24U G60C G63C G69A U81G C98G U109G,-6.52
6,G44C U81A C89U G110U,-4.45
7,G69C A90U,-2.68
8,G48U C70U C86U G113A,-2.66
9,C11G U21G C53A U55C,-0.805
10,A16C C124G,1
11,U38G U112C,0.772
12,C15G U132A,-2.31
13,U32G G57C C76U C82G C85U C114G,-7.16
14,C70U C72A C79U G110A,-2.38
15,A66C G120U U132C,-0.962
16,C15U G19U C124G,-2.54
17,C8U U14A G36A C72U,-2.09
18,A18C G69U C115U,-1.28
19,U14A G93A C102U,-4.36
20,G17A C89U,-3.72
21,G48U C62A A91U C123U U125A,-4.09

row,Variant,polymerase ribozyme fitness (log ratio)
1,U9G G71A C80U C98U G110U,-6.92
2,G44U C72A,-1.04
3,U9A C40G G113A,-0.901
4,A2G A29G G120A C123G,-0.383
5,C12U C88U,0.381
6,C15U G52A C62U A74U A83U U132A,-3.97
7,C12G C15U A74U U116A G117A U133A,-1.36
8,A5C A91U,-2.68
9,A43G C49G C98U G120C,-3.88
10,G10C C56U,-0.594
11,G52A G77U G117U,-4.34
12,C72U U87G C104A,-0.492
13,C28G G47U C53U,-4.48
14,C13A G113A,-2.48
15,C40G C104A,-2.31
16,G42A G48U C56U C114U U131C,-3.37
17,A2C C72A C114G,-4.02
18,C70G G77A,-1.74
19,U7A G42U G58C G71U C88U G113A,-2.19
20,C85U U109A A121G,-4.29
21,C85G G110A,-3.38

row,Variant,polymerase ribozyme fitness (log ratio)
1,C11G G60U,0.25
2,C11A C22A C56G U78A U112A U131A,-2.4
3,C12U C56A A91U A121C,-0.738
4,G44U U129A U131A,-3.84
5,G10A A37U G71C C104U,-0.936
6,C15U G93U,-2.38
7,U9C C15G U78G U96C C124U,-0.775
8,U96C G110A,-0.613
9,G10A G19A A74U,-3.32
10,U32G A43C C73U C97G G117A,-6.86
11,C73U U109A,-4.25
12,A6G G36C C72U C80A U116A C123A,-5.42
13,U96A U130C,-0.978
14,C11U U30A,-4.5
15,C8A C104A A105C C124G U126G,-3.52
16,A29U C114U G120C C123U G128C,-4.45
17,C12G C22A C49A U55A C56U C62G G93U,-7.34
18,A121G U131G,1.36
19,C13A U87A G113A,-2.16
20,C80G G117C,-6.43
